From paper PMC10499876, “Arabidopsis TCP4 transcription factor inhibits high temperature-induced homeotic conversion of ovules”

Target: T1, TCP4 DNA binding domain (Arabidopsis thaliana, UniProt Q8LPR5 45-103)
T1 sequence: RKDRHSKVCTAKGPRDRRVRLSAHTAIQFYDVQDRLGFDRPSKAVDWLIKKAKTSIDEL
Assay: EMSA; EMSA: ~180 ng protein + ~200 ng dsDNA, 4 °C 20 min; DNA annealed in 25 mM Tris, 100 mM NaCl pH 8.0; 7% native PAGE in 0.5x TBE, ethidium bromide; binding buffer not stated
Settings: protein: recombinant; tags: C-terminal His (pET-21b); chain copies: 2; blunt

B1: CRC promoter probe (dsDNA)
DNA 1: CAGGAAAGGACCATTCTTAA
DNA 2: TTAAGAATGGTCCTTTCCTG
binding result: binds
